# Experimental data from paper doi:10.1101/370411.
# Target: Porcine circovirus 2 (PCV2) virus like particle, Baculovirus expressed capsid protein (Porcine circovirus 2)
# Test: cryo-EM structure
substance,measurement,value
"Porcine circovirus 2 (PCV2) virus like particle, Baculovirus expressed capsid protein (natural protein)",stoichiometry N,60
